Data taken from patent US20250129168A1.
Residue numbers refer to the chain shown, from its start.

B1: 2M24A.23 hFab H1 (Fab, V domains shown)
VH: QVQLVQSGAEVKKPGASVKVSCKSSGYTFTDYYIHWVRQAPGQGLEWMGWINPNSGDTNYAQKFQGRVTMTRDTSISTAYMELSRLRSDDTAVYYCARNSGSYSFGYWGQGTLVTVSS
VL: DIQMTQSPSSVSASVGDRVTITCRASQGISSWLAWYQQKPGKAPKLLIFGASSLQSGVPSRFSGSGSGTDFTLTVSSLQPEDFATYYCQQAYSFPFTFGPGTKVDIE
B2: 2M24A.26 hFab H4 (Fab, V domains shown)
VH: B1 VH with I34M
VL: B1 VL
B3: 2M24A.25 hFab H3 (Fab, V domains shown)
VH: B1 VH with S24A
VL: B1 VL

What follows are binders tested against recombinant human-Dectin-1 mouse Fc fusion (human) (UniProt Q9BXN2) (assay: biosensor, Fab, second K dis column).

With B1 as the binder, how does the koff read?
Its koff is 0.00143 s⁻¹.

With B2 as the binder, how does the koff read?
The koff was 0.00102 s⁻¹.

Which koff does the source give for B3 here?
Its koff is 0.00132 s⁻¹.

Each binder was assayed against recombinant human-Dectin-1 mouse Fc fusion (human) (UniProt Q9BXN2) (assay: biosensor, Fab, Ave K dis (n = 3); repeats Table 3).

B1 was tested. Which koff did it give?
The koff was 0.00396 s⁻¹.

B2 was tested. Which koff did it give?
The koff was 0.00264 s⁻¹.

Which koff does the source give for B3 here?
The koff was 0.0037 s⁻¹.

The binders below were run against recombinant human-Dectin-1 mouse Fc fusion (human) (UniProt Q9BXN2) (assay: biosensor, Fab, third K dis column).

Which koff does the source give for B1 here?
Its koff is 0.00204 s⁻¹.

For B2, which koff is on record?
Its koff is 0.0016 s⁻¹.

Which koff does the source give for B3 here?
The koff was 0.00214 s⁻¹.

What follows are binders tested against recombinant human-Dectin-1 mouse Fc fusion (human) (UniProt Q9BXN2) (assay: biosensor, Fab, Ave of three).

For B1, which koff is on record?
The koff was 0.00396 s⁻¹.

Which koff does the source give for B2 here?
The koff was 0.00264 s⁻¹.

With B3 as the binder, how does the koff read?
Its koff is 0.0037 s⁻¹.

Each binder was assayed against recombinant human-Dectin-1 mouse Fc fusion (human) (UniProt Q9BXN2) (assay: biosensor, Fab, first K dis column).

Which koff does the source give for B1 here?
The koff was 0.00841 s⁻¹.

With B2 as the binder, how does the koff read?
Its koff is 0.0053 s⁻¹.

Which koff does the source give for B3 here?
Its koff is 0.00765 s⁻¹.
